These are literature values, as cited in PMC7228847.

In this series the target is SEMA6A ECD (Mus musculus) (UniProt O35464).
Chain of SEMA6A ECD (Mus musculus) (O35464 19-649): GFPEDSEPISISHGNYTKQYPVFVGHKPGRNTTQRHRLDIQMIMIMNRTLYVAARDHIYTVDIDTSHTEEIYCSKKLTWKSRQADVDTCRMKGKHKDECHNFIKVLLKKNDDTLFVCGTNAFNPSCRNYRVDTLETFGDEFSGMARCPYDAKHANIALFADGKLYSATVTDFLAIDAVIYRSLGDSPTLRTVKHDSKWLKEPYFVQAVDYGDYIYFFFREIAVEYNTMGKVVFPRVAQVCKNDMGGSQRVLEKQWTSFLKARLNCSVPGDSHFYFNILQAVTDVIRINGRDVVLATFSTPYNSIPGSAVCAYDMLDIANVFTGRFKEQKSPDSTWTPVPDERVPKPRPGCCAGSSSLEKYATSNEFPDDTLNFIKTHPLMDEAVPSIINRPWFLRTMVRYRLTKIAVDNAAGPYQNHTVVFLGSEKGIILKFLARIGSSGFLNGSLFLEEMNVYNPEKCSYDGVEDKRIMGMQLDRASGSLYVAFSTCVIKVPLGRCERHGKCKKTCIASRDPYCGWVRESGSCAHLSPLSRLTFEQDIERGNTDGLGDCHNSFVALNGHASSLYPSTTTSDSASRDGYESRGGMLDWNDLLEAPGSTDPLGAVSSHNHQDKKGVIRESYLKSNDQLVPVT

Chain of PlexinA2 (P70207 35-1237): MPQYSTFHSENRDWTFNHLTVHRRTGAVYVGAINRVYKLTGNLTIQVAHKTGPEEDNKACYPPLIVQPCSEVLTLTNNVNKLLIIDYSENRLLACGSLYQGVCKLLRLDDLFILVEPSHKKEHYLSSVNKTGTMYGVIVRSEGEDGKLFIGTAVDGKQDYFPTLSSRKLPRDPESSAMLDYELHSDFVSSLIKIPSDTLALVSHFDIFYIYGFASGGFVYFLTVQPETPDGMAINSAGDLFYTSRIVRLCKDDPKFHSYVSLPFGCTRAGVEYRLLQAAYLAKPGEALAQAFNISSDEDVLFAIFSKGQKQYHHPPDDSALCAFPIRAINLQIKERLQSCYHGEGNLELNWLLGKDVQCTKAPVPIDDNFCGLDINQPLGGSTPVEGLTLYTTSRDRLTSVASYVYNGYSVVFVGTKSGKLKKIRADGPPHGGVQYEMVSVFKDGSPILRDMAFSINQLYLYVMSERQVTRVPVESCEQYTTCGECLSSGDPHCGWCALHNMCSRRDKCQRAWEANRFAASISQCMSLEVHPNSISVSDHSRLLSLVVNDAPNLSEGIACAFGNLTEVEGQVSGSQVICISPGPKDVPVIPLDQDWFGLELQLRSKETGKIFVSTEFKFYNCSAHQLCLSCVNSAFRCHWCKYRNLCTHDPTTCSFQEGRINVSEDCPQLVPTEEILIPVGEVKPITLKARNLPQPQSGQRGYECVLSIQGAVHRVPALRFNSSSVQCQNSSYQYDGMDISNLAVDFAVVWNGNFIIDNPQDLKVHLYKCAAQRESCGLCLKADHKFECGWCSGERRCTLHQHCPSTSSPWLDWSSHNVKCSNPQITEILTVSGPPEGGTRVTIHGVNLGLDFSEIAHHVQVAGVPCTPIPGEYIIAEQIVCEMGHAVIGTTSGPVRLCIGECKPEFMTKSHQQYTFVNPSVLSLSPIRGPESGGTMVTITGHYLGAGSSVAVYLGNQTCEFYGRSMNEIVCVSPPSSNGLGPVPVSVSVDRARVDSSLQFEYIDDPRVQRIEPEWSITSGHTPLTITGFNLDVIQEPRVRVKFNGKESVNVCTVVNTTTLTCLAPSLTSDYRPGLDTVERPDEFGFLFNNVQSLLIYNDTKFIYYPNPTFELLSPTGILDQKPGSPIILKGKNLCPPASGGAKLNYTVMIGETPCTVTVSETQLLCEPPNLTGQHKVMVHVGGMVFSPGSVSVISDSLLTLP

As for PlexinA2 (from UniProt P70207), the Kd (as a rule, the concentration at which binding is half-saturated) is 2300 nM.
